B1: Mucosa-associated lymphoid tissue lymphoma translocation protein 1 (Homo sapiens), Q9UDY8 (parent)
chain: MSLLGDPLQALPPSAAPTGPLLAPPAGATLNRLREPLLRRLSELLDQAPEGRGWRRLAELAGSRGRLRLSCLDLEQCSLKVLEPEGSPSLCLLKLMGEKGCTVTELSDFLQAMEHTEVLQLLSPPGIKITVNPESKAVLAGQFVKLCCRATGHPFVQYQWFKMNKEIPNGNTSELIFNAVHVKDAGFYVCRVNNNFTFEFSQWSQLDVCDIPESFQRSVDGVSESKLQICVEPTSQKLMPGSTLVLQCVAVGSPIPHYQWFKNELPLTHETKKLYMVPYVDLEHQGTYWCHVYNDRDSQDSKKVEIIIGRTDEAVECTEDELNNLGHPDNKEQTTDQPLAKDKVALLIGNMNYREHPKLKAPLVDVYELTNLLRQLDFKVVSLLDLTEYEMRNAVDEFLLLLDKGVYGLLYYAGHGYENFGNSFMVPVDAPNPYRSENCLCVQNILKLMQEKETGLNVFLLDMCRKRNDYDDTIPILDALKVTANIVFGYATCQGAEAFEIQHSGLANGIFMKFLKDRLLEDKKITVLLDEVAEDMGKCHLTKGKQALEIRSSLSEKRALTDPIQGTEYSAESLVRNLQWAKAHELPESMCLKFDCGVQIQLGFAAEFSNVMIIYTSIVYKPPEIIMCDAYVTDFPLDLDIDPKDANKGTPEETGSYLVSKDLPKHCLYTRLSSLQKLKEHLVFTVCLSYQYSGLEDTVEDKQEVNVGKPLIAKLDMHRGLGRKTCFQTCLMSNGPYQSSAATSGGAGHYHSLQDPFHGVYHSHPGNPSNVTPADSCHCSRTPDAFISSFAHHASCHFSRSNVPVETTDEIPFSFSDRLRISEK

Variants of B1 are the subject of the assay. The following applies: with ubc_human UBC.
Regarding K644R;K648R;K661R;K665R;K677R;K679R;K702R;K709R;K714R;K724R;K824R, the “effect of a mutation on the interaction” value is “disrupting interaction”.

Source of the values: IntAct's records for PubMed 17948050.
